Test results published in article PMC10697951.

Columns and labels:
[1] = biological target: SUV420H1(1–390) S255F (human) (UniProt Q4FZB7); experiment: MST; His-tagged SUV420H1 labelled with RED-tris-NTA (50 nM protein, 10 nM dye) kept constant; nucleosomes serially diluted from 6 μM to 45.75 pM; 20 mM HEPES pH 7.5, 50 mM NaCl, 50 mM KCl, 1 mg/mL BSA, 0.05% Tween-20, 40 μM SAM, 2 mM DTT; room temperature; triplicate
[2] = biological target: SUV420H1(1–390), wild type, with N-terminal 6× His-TEV tag (human) (UniProt Q4FZB7); experiment: as above
[3] = biological target: SUV420H1(1–390) R286A (human) (UniProt Q4FZB7); experiment: as above
[4] = biological target: SUV420H1(1–390) R357A (human) (UniProt Q4FZB7); experiment: as above
[5] = biological target: SUV420H1(1–335) (human) (UniProt Q4FZB7); experiment: as above
[6] = biological target: SUV420H1(1–390) R220A (human) (UniProt Q4FZB7); experiment: as above
[7] = biological target: SUV420H1(1–390) K258A (human) (UniProt Q4FZB7); experiment: as above
[8] = biological target: SUV420H1(1–390) S283L (human) (UniProt Q4FZB7); experiment: as above
[9] = biological target: SUV420H1(1–390) Y349A (human) (UniProt Q4FZB7); experiment: as above
[10] = biological target: SUV420H1(1–390) R257A (human) (UniProt Q4FZB7); experiment: as above
[11] = biological target: SUV420H1(63–390) (human) (UniProt Q4FZB7); experiment: as above
[12] = biological target: SUV420H1(1–390) R357H (human) (UniProt Q4FZB7); experiment: as above
[13] = biological target: SUV420H1(1–390) R352A (human) (UniProt Q4FZB7); experiment: as above
[14] = biological target: SUV420H1(1-390) wild type (human) (UniProt Q4FZB7); experiment: MST; conditions: MST: 20 mM HEPES pH 7.5, 50 mM NaCl (listed twice), 50 mM KCl, 1 mg/mL BSA, 0.05% Tween-20, 40 uM SAM, 2 mM DTT, room temperature, EMSA: 25 mM HEPES pH 7.5 …
[15] = tested on: SUV420H1(63-390) (human); experiment: MST; conditions: histone H4 K20M; MST: 20 mM HEPES pH 7.5, 50 mM NaCl (listed twice), 50 mM KCl, 1 mg/mL BSA, 0.05% Tween-20, 40 uM SAM, 2 mM DTT, room temperature; EMSA: 25 mM HEPES pH 7.5 …
[16] = tested on: SUV420H1(1-335) (human); experiment: MST; conditions: histone H4 K20M; MST: 20 mM HEPES pH 7.5, 50 mM NaCl (listed twice), 50 mM KCl, 1 mg/mL BSA, 0.05% Tween-20, 40 uM SAM, 2 mM DTT, room temperature; EMSA: 25 mM HEPES pH 7.5 …

SUV420H1(1-390) wild type (human), sequence (Q4FZB7 1-390): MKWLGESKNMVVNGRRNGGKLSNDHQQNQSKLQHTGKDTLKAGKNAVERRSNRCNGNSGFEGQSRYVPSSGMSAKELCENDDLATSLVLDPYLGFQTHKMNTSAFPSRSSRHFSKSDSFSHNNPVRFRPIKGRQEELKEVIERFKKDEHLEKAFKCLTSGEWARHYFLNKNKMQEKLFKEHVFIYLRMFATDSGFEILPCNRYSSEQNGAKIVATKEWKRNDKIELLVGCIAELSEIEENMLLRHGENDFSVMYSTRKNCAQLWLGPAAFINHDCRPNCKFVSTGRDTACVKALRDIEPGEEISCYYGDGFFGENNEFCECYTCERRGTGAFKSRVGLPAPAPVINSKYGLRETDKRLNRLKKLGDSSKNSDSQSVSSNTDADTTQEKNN
SUV420H1(1–390), wild type, with N-terminal 6× His-TEV tag (human), sequence (Q4FZB7 1-390): as above
SUV420H1(1–390) K258A (human), sequence (Q4FZB7 1-390 K258A): as the sequence (Q4FZB7 1-390) above, with K258A counted along it
SUV420H1(1–390) R357H (human), sequence (Q4FZB7 1-390 R357H): as the sequence (Q4FZB7 1-390) above, with R357H counted along it
SUV420H1(1–390) R357A (human), sequence (Q4FZB7 1-390 R357A): as the sequence (Q4FZB7 1-390) above, with R357A counted along it
SUV420H1(1–390) R352A (human), sequence (Q4FZB7 1-390 R352A): as the sequence (Q4FZB7 1-390) above, with R352A counted along it
SUV420H1(1–390) Y349A (human), sequence (Q4FZB7 1-390 Y349A): as the sequence (Q4FZB7 1-390) above, with Y349A counted along it
SUV420H1(1–390) S283L (human), sequence (Q4FZB7 1-390 S283L): as the sequence (Q4FZB7 1-390) above, with S283L counted along it
SUV420H1(1–390) R220A (human), sequence (Q4FZB7 1-390 R220A): as the sequence (Q4FZB7 1-390) above, with R220A counted along it
SUV420H1(1–335) (human), sequence (Q4FZB7 1-335): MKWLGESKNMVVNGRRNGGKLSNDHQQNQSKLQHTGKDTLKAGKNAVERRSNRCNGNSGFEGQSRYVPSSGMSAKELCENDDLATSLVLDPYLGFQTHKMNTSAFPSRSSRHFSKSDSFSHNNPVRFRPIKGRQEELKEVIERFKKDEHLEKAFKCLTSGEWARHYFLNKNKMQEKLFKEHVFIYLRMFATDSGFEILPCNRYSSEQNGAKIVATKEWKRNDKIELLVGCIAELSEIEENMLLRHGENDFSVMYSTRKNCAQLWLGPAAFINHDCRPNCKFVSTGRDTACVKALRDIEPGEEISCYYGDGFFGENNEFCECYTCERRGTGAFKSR
SUV420H1(1–390) R286A (human), sequence (Q4FZB7 1-390 R286A): as the sequence (Q4FZB7 1-390) above, with R286A counted along it
SUV420H1(1–390) R257A (human), sequence (Q4FZB7 1-390 R257A): as the sequence (Q4FZB7 1-390) above, with R257A counted along it
SUV420H1(63–390) (human), sequence (Q4FZB7 63-390): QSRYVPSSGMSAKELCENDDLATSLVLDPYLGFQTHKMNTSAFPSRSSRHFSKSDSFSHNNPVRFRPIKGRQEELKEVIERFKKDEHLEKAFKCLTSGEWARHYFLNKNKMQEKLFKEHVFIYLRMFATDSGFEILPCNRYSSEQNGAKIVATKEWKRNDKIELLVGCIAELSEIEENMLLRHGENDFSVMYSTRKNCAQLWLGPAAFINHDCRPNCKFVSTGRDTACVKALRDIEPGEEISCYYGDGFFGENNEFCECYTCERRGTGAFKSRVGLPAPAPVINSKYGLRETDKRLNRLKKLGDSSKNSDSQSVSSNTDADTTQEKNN
SUV420H1(1–390) S255F (human), sequence (Q4FZB7 1-390 S255F): as the sequence (Q4FZB7 1-390) above, with S255F counted along it

H2A-containing nucleosome core particle with H4K20M (from UniProt P04908 16-130; P06899 1-126; P68431 1-136) (complex)
Kd [1]: 182 nM | Kd [2]: 62 nM | Kd [3]: 323 nM | Kd [4]: 213 nM | Kd [5]: 292 nM | Kd [6]: 93 nM | Kd [7]: 112 nM | Kd [8]: 85 nM | Kd [9]: 108 nM | Kd [10]: 144 nM | Kd [11]: 410 nM | Kd [12]: 83 nM | Kd [13]: 220 nM

H2A-containing nucleosome core particle with wild-type H4 (H4K20) (from UniProt P04908 16-130; P06899 1-126; P68431 1-136; P62805 1-103) (complex)
Kd [2]: 227 nM

H2A.Z-containing nucleosome core particle with wild-type H4 (H4K20) (from UniProt P0C0S5 14-126; P06899 1-126; P68431 1-136; P62805 1-103) (complex)
Kd [2]: 130 nM

NCP H2A, H4K20 (canonical)
Kd [14]: 227 nM

NCP H2A, H4K20M
Kd ([14]; histone H4 K20M): 62 nM | Kd [15]: 410 nM | Kd [16]: 292 nM

NCP H2A.Z, H4K20
Kd ([14]; histone variant H2A.Z): 130 nM
